# How the values were obtained:
# [1] = target: cMet-Fc (HGFR ectodomain fused to human IgG1 Fc) (human) (UniProt P08581); assay: competition filter binding; conditions: vs 5'-32P-trCLN3; ~50 nM cMet; four 5'-terminal 5-(1-dodecynyl)-dU (C12 lipid; printed as LLLL, written as UUUU); 1x PBS pH 7.4, 2 mM MgCl2, 0.1 mg/mL E. coli tRNA, 0.25 mg/mL BSA, 37 C, 30 min; ~25 fmol 32P-trCLN3, ~50 nM cMet, 25 uL, nitrocellulose filter
# [2] = target: cMet-Fc (HGFR ectodomain fused to human IgG1 Fc) (human, UniProt P08581 25-932); assay: competition filter binding; vs 5'-32P-trCLN3; ~50 nM cMet; 1x PBS pH 7.4, 2 mM MgCl2, 0.1 mg/mL E. coli tRNA, 0.25 mg/mL BSA, 37 C, 30 min; ~25 fmol 32P-trCLN3, ~50 nM cMet, 25 uL, nitrocellulose filter; conditions: protein: commercial; two predicted intramolecular G-quadruplexes
# Chain of cMet-Fc (HGFR ectodomain fused to human IgG1 Fc) (P08581 25-932): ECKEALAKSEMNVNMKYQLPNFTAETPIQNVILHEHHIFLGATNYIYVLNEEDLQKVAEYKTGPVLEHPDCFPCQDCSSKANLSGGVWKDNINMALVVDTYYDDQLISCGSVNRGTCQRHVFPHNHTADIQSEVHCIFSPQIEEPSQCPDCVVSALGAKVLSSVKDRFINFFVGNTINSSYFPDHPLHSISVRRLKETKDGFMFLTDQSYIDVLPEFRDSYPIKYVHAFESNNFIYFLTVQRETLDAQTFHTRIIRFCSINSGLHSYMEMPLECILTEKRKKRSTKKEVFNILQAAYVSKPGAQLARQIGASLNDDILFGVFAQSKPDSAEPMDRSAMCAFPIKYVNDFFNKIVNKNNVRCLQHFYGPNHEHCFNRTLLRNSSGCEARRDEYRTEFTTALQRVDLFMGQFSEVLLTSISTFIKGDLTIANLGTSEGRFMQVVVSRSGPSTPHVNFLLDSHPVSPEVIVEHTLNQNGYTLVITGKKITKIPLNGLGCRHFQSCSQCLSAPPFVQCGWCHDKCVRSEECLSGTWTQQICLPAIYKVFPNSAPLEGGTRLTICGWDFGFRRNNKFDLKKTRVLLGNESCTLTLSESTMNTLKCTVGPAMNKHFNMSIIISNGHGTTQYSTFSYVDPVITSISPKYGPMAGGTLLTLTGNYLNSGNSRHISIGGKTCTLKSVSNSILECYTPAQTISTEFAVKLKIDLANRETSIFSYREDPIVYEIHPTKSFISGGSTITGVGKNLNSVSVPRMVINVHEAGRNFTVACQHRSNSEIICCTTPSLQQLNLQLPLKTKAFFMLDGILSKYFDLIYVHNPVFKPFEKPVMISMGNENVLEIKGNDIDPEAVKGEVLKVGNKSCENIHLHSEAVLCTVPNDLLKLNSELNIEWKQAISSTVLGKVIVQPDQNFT
# Chain of cMet-Fc (HGFR ectodomain fused to human IgG1 Fc) (human) (P08581 25-932): as above
Molecule,IC50 [1] [nM],IC50 [2] [nM]
UUUUTGGATGGTAGCTCGGTCGGGGTGGGTGGGTTGGCAAGTCT [trCLN3-L4],43,
TGGATGGTAGCTCGGTCGGGGTGGGTGGGTTGGCAAGTCT (structured_DNA) [trCLN3],,56

# Reference: paper PMC5803212, “Supramolecular aptamer nano-constructs for receptor-mediated targeting and light-triggered release of chemotherapeutics into cancer cells”
